From the nanobody polyreactivity screen of Harvey et al. (2022)

Experiment: yeast display, Sf9 membrane polyspecificity reagent, FACS + sequencing; frameworks hold sequencing errors
In short: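 A synthetic nanobody library was expressed on Saccharomyces cerevisiae BJ5465 by galactose induction for 36–48 hours. The library was stained for 1 hour at 4 °C with 10% biotinylated, detergent-solubilized Sf9 membrane reagent and enriched with streptavidin microbeads before FACS. Low and high (top ~1%) gates were set on anti-HA fluorescence for expression and streptavidin fluorescence for reagent binding, and each polyreactivity label reflects the gate of origin.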

| Sequence | polyreactivity (PSR sort gate) |
| --- | --- |
| QVQLVESGGGLVQAGGSLRLSCAASGITFCYYGMGRYRQAPGKERELVAAISSGGRTYYADSVKGRFTISRDNAKNTVYLQMNSLNPEDSAVYYCADRTKYIFVYQGVYWGQGTQVTVSS | high polyreactivity |
| QVQLVESGGGLVQAGRILRLSCAASGYIFRRYAMGWYRQAPGKERELVAVISSRGGSTYYADSVKGRFTISRDNATKTVYLQMNSLKPEDTAVYYCAARSGSRATFLSDYWGQGNQVTVSS | high polyreactivity |
| QDQLVESGGGLVQAGGSLRLSCAASGSIFGAYARGWYRQAPGKERELVAAISGSGTSTYYADSVKGRFTISRDNAKNTVYLQMNSLKPEDTAVYYCAADGTYFYIYLGDRFDYWGQGTQVTVSS | low polyreactivity |
| QVQLVDSGGGLVQAGGSLRLSCAASGFIFRYYAMGWNRQATGKERELVAAISWSTDNTYYADSVKGRFTILRDNAKNTVYLQMNSLKPEDTAVYYCAADEGWYGPKLDYWGQGTQVTVSS | low polyreactivity |
| QVQLVESGGGLVQAGGSLRLSCAASGSIFRVYAMGRYRQAPGKERELVATISGSAGRTYYADSVKGRFTISRDNAKNTVYLQMNSLKPEDTAVYYCAARWYKEYYWGQGTQVTVSS | high polyreactivity |
| QVQLVESGGGLVQAGGSLRLSCAASGIIFQFYAMGWYRQAPGKERELVAAISRSGGITHYADSVKGRFTISRDNAKNTVYLQMNSLKPEDTAVYYCAAVRQAYPRLDYWGQGTQVTVSS | high polyreactivity |
| QVQLVESGGGLVQAGGSLRLSCAASGSIFDYYDMGWYRQAPGKERELVAAINWSGGITYYADSVKGRFTISRDNAKNTVYLQMNSLKPEDTAVYYCAADWYQWVYSSSITSFDYWGQGTQVTVSS | low polyreactivity |
| QVQLVESGGGLVQARGSLRLSCASSGFIFSRYAMGWYRQAPGKESELVAAITSGGSTYYADSVKGRFTISRDNAKNTVYLQMNSLKPEDTAVYYCNVVSKSRISQYVGYSYDYWGQGTQVTVSS | high polyreactivity |
| QVQLVESGGGLVQAGGSLRLSCAASGSTFRYNAMGWYRQAPGKERELVASISGSGGGTYYADSVKGRFTISRDNAKNTVYLQMNSLKPEDTAVYYCAADAGAFYFGGDYWGQGTQVTVSS | low polyreactivity |
| QVQLVESGGGLVQAGGSLRLSCAASGRIFDYNTLGWYRQAPGKERELVAAISASGTRTYYADSVKGRFTISRDNAKNTVYLQMNSLKPEDTAVYYCAAVYSYIASYLRYDYWGQGTQVTVSS | high polyreactivity |
| QVQLVESGGGLVQAGGSLRLSCAASGSIFRPYVMGWYRQAPGKERELVAAISSRGGDTYYADSVKGRFTISRDNAKNTVYLQMNSLKPEDTAVYYCAAVEFRDSTFVVVSSPTSKSDYWGQGTQVTVSS | low polyreactivity |
| QVQLVESGGGLFQAGGSLRLSCAASGRTFCPYTMGWYRQAPGKERELVAVISSNDGSTDYADSVKGRFTFSRDNAKNTVYLQMNSLKPEDTAVYYCAAEVYFGYYGGYGYWGQGTQVTVSS | low polyreactivity |
| QVQLVESGGGLVQAGGSLRFSCAASGFIFGDYAMGWDRQAPGTEREFVATISRSVGSRSYADSVKGRFTISRDNAKKPVYLQMNSLKPEDTAVYYCAAVTWGEGFDYWGQGTQVTVSA | low polyreactivity |
| QVQLVDSGGGLVQAGGSLRLSCAASGAIFDIYGMGWYRQAPGKERELVASISGGAGSTNYADSVKGRFTISRDNAKNTVYLQMNSLKPEDTAVYYCAAEVYVPDYFQHKFDVEYEYWGHGTQVTVSS | low polyreactivity |
| QVQLVESGGGLVQAGGSLRLSCAASGRIIIYKAMGWYRQAPGKERQLVAAINRSGVSTHYADSVKGRFTISRDNAKNTVYLQMNSLKPEDTAVYYCARTVYGARSYDYWGQGTQVTVSS | low polyreactivity |
| QVQLVESGGGLVQAGGSLRLSCAASGFTFSIYAMGWYRHAPGKERELVAAINWSGGSTYYADSVKGRFTISRDNAKNTVYLQMNSLKPEDTAVSYCATEATYGGGPGYEYWGQGTQVTVSS | low polyreactivity |
| QVQLVESGGGLVQAGGSLRLSCAASGFIFTNVMGWYRQAPGKERELVAAISGRGTSTYYADSVKGRFTISRDNAKNTVYLQMNSLKPEETAVYYCAAASYQSRYWNYYWGQGTQVTVSS | high polyreactivity |
| QVQLVESGGGLVQAGGSLRLSCAASGRIFPTYAMGWYRQAPGKERELVAAITWRGGRTYYADSVKGRFTISRDNAKNTVYLQMNSLKPEDTAVYYCAAGWLTRSYEYDYWGQGTQVTVSS | high polyreactivity |
| QVQLVESAAGLVQAGGSLRLSCAASGLTFTTYDKGWYTQAPRKQRELFAAISRGGSRTYYADSVKGRFTISRDNAKNTVYLQMNSLKPEDTAVYYGNALTGSFTTYSFDFWGQGTQVTVSS | high polyreactivity |
| QVQLVESGGGLVQAGGSLRLSCAASGSTFPSYAMGWYRQAPGKERELVAVITSGGRTYYADSVKGRFTISRDNAKNTVYLQMNSLKPEDTAVYYCAARGHRGYQGYDYWGQGTPVTVSS | high polyreactivity |
| QVQLVESGGGLVQAGGSLRLSCAASGSILRDYAMGWYRQAPGKERELVAAITTSGAITYYADSVKGRFTISRDNAKNTVYLQMNSLKTEDTAVYYCNAKYVRWYGKYNYWGQGTQVTVSS | high polyreactivity |

| Sequence | polyreactivity (PSR sort gate) |
| --- | --- |
| QVQLVESGGGLVQAGGSHRLSCASSGIIFAWYVMGWSRQAPGKDSELVAAITQSGGSTFYADSVKGRFTISRDNAKNTVYLQMNSLKPEDTEVYYCNTEDFFNVPEMDSWGQGTQVTVSS | low polyreactivity |
| QVQLVESGGGLVQAGGSLRLSCAASGNIFNLYAMGWYRQAPGKERELVAAIRGSGSTYYADSVKGRFTISRDNAKNTVYLQMNSLKPEDTAVYYCAAGISGHYYWGQGTQVTVSS | high polyreactivity |
| QVQLVESGGGLVQAGGSLRLSCAASGSTCWSYAMGWYRQAPGKERELVATITRAGTTNYADSVKGRFTISRDNAKNTVSLQRNSLNPEDTAVYYCAKRIFRWPYQGSYSFIPFGYWGQGTQVTVSS | high polyreactivity |
| QVQLVESGGGLVQAGGSLRLSCAASGLIFDVNTMGWYRQAPRKERELVAAITGSGGRTYYADSVKGRFTISRDNAKNTVYLQMNSLKPEDNAVYYCNARHPASGDLYRMDYWGQGTQVTVSS | low polyreactivity |
| QVQLVESGGGLVQAGGRLRLSCAASGSTFHYYAMGWDRQAPGKERELVAAISQSGSGTYYADSVKGLFTISRDNAKKTVYLQMNSLKPEDTAVYYCAKDITGLSRYRRDYWGQGTQVTVSS | low polyreactivity |
| QVQLVESGGGLVQAGGSLRLSCAASGSIFLIYAMGWYRQAPGKERELVATINRGDNTYYADSVKGRFTISRDNAKNTVYLQMNSLKPEDTAVYYCAARAYDLGYAGYDYWGQGTQVTVSS | low polyreactivity |
| KVQLVESGGGLVQAGGSLRLSCAASGRILVYNVMGWYRQAPGKEMEFVAAITSRDTSTYYADSVKGRFTISRDNAKNPVYLQMNSLKPEDTAVYYCAVRVGARVRYYSWGQGTQVTVSS | high polyreactivity |
| QVQLVESGGGLVQAGGSLRLSCAASGSIRYYVMGWYRQAPGKERELVAGINWSGGSTYYADSVKGRFTISRDNAKNTVYLQMNSLKPEDTAVYYCAARFVGVRDGYYYWGQGTQVTVSS | high polyreactivity |
| QVHLEESGGGLVQAGGSLRLSCAASGRTFRHNAMGWYRQAPGKERELVAAISSSGTNTHYADSVKGRFTISRDNAKNTVYLQMNSLKPEDTAVYYCAADRWGARRKQYHENGYWGQGTQVTVSS | high polyreactivity |
| QVQLVESGGGLVQAGGSLRLSCAASGSIFSSYAMGWYRQAPGKEREMVAAITYSGGRTYYADSVKGRFTISRDNAKNTVYLQMNSLKPEDTAVYYCNARKYVGFWSRYDYWGQGTQVTVSS | high polyreactivity |
| QVHLVESGGGLVQAGGSLRLSCADYGSNLYYKAMGWYRQAPGKEMQVVAAISTGGRTNYADSVKGRFTISRDNAKNTVYLQMNSLKPEDSAVYYCAAETTTEITDTDYDYWGQGTQVTVSS | low polyreactivity |
| QGQLVESGGGLVQAGGSLRLTCPPSGFTFRTNAMGWYRQAPGKERELVAAISYSGGSTYYADSVKGRFTISRDNAKNTVYFQMNSLKPEDTAVSYCAARAAGSQHDYWGQGSQVTVSS | high polyreactivity |
| QVQLVESGGGLVQAGGSLRLSCAASGFTFYLYALGWYRQAPGKERELVAAITYSGGSTYYADSVKGRFTISRDNAKNTVYLQMNSLKPEDTAVYYCAADARGKVYWGQGTQVTVSS | high polyreactivity |
| QVQLVESGGGLVQAGGSLRLSCAASGSTFVFYAMGWYRQAPGKERELVAINSGGSTYYADSVKGRFTISRDNAKKTVYLQMNSLKPVDTAVYYCAKDRLRVWRFDYWGQGTQVTVSS | low polyreactivity |
| QVQLVESGGGLVQAGGSLRLSCAASGRTFAWYAMGWYRQAPGKERELVAAISSGGSTYYADSVKGRFTISRDNAKNTVYLQMNSLKPEDTAVYYCAAEWHYIYAYDSWGQGTQVTVSS | low polyreactivity |
| QVQLVESGGGLVQAGGSLRLSCAASGRIFKRYTLGWYRPAPAKERELVAAITKRADRTNYADSVKGRFTISRDNAKNTVYLQMNSLKPEDTAVYDCNAEGQNDHPSNGYISYKYDYWGQGTQVTVSS | low polyreactivity |
| QVQLVESGGGLVQAGGSLRLSSAASGRIFPRYAMGWYSQAPGKERELVAAISGSGGGTYYADSVKGRFTISRDNAKNTVYLQMNSLKPEDTAVYYCAAVATQEKYDYWGQGTQVTVSS | low polyreactivity |
| QVQLEESGGGLVQAGVSLRLSCAASGSTFGYYAMGWSRQAPGKERELVAAITSGGTTNYADYVKGRFTISRYNEKNTVYLQMYSLKPEDTAVYYCNAVGTFVRYWTDGRDGVTYDFWGQGTQVTVSS | low polyreactivity |
| QVQLVESGGGLVQAGGSLRLSCAASGSTFIFYTMGWYRQAPGKERELVAAITSNGGSTYYADSVKGRFTISRDNAKNTVYFQMNSLKPEDTAVYYCARVDRWRRYRYIFSGYDYWGQGTQVTVSS | high polyreactivity |
| QVQLVESGGGLVQAGGSLRLSCAASGRTFLVNAMGWYRQAPGKERELVAAITANGGNTYYADSVKGRFTISRDNAKNTVYLQMNSLKPEDTAVYYCAKLSHRGQSTGVDYWGQGTQVTVSS | low polyreactivity |
